Results on 1 molecule are retold here after article PMC3498520 (Journal of the American Chemical Society, 2012).

This experiment is classed as biochemical. The settings on record: total turnovers in ART hydroxylation; purified P450, NADPH regeneration system, 12 h.

B1: wild-type P450BM3: catalytically self-sufficient fatty acid monooxygenase P450BM3 from Bacillus megaterium (protein, UniProt P14779 1-1049, looked up)
Bifunctional cytochrome …: MTIKEMPQPKTFGELKNLPLLNTDKPVQALMKIADELGEIFKFEAPGRVTRYLSSQRLIKEACDESRFDKNLSQALKFVRDFAGDGLFTSWTHEKNWKKAHNILLPSFSQQAMKGYHAMMVDIAVQLVQKWERLNADEHIEVPEDMTRLTLDTIGLCGFNYRFNSFYRDQPHPFITSMVRALDEAMNKLQRANPDDPAYDENKRQFQEDIKVMNDLVDKIIADRKASGEQSDDLLTHMLNGKDPETGEPLDDENIRYQIITFLIAGHETTSGLLSFALYFLVKNPHVLQKAAEEAARVLVDPVPSYKQVKQLKYVGMVLNEALRLWPTAPAFSLYAKEDTVLGGEYPLEKGDELMVLIPQLHRDKTIWGDDVEEFRPERFENPSAIPQHAFKPFGNGQRACIGQQFALHEATLVLGMMLKHFDFEDHTNYELDIKETLTLKPEGFVVKAKSKKIPLGGIPSPSTEQSAKKVRKKAENAHNTPLLVLYGSNMGTAEGTARDLADIAMSKGFAPQVATLDSHAGNLPREGAVLIVTASYNGHPPDNAKQFVDWLDQASADEVKGVRYSVFGCGDKNWATTYQKVPAFIDETLAAKGAENIADRGEADASDDFEGTYEEWREHMWSDVAAYFNLDIENSEDNKSTLSLQFVDSAADMPLAKMHGAFSTNVVASKELQQPGSARSTRHLEIELPKEASYQEGDHLGVIPRNYEGIVNRVTARFGLDASQQIRLEAEEEKLAHLPLAKTVSVEELLQYVELQDPVTRTQLRAMAAKTVCPPHKVELEALLEKQAYKEQVLAKRLTMLELLEKYPACEMKFSEFIALLPSIRPRYYSISSSPRVDEKQASITVSVVSGEAWSGYGEYKGIASNYLAELQEGDTITCFISTPQSEFTLPKDPETPLIMVGPGTGVAPFRGFVQARKQLKEQGQSLGEAHLYFGCRSPHEDYLYQEELENAQSEGIITLHTAFSRMPNQPKTYVQHVMEQDGKKLIELLDQGAHFYICGDGSQMAPAVEATLMKSYADVHQVSEADARLWLQQLEEKGRYAKDVWAG
In the case of B1, the TTN result was “no ART-oxidation activity”.
